Assay results reported in patent publication US20240327502A1 (Merck Sharp & Dohme, published 2024).
Numbering of substitutions follows the chain as printed.

B1: M3C11 (antibody, V domains shown)
VH: QVQLQESGPGLVKPSETLSLTCTVSGGSLSSYCWSWIRQPPGKGLEWIGYIYYSGGTNYNPSLKSRVTISVDTSKNQFSLNLSSVTAADTAVYYCARGEASGYLNYYFDYWGQGTLVAVSS
VL: SYELTQPPSVSVSPGQTASITCSGHKLGDKYAYWYQQKPGQSPVLVIYQDNKRPSGIPERFSGSNSGNTATLTISGTQAMDEADYYCQAWDSGTVFGGGTKLTVL
notes: IgG
B2: M4C03 (antibody, V domains shown)
VH: EVQLVESGGTLVQPGGSLRLSCAASGFRFNAFSMNWVRQAPGKGLEWVSYIDSRSNIIYYADSVKGRFTISRDNAKTSLYLRMSSLRDEDTAVYYCAKALCVVNYDFWSGLLGCAMDVWGQGTTVTVSS
VL: QSVLTQPPSVSGAPGQRVTISCTGTTSNIGAGFDVHWYQQVPGTAPKLLIYANTDRPSGVPDRFSASKSGTSASLAITGLQVEDEAHYYCQTYDTTLSGSTVFGGGTKLTVL
notes: IgG
B3: M4C08 (antibody, V domains shown)
VH: B2 VH with R28K, T77N
VL: B2 VL with T25N, V82A, H87D, T95R, T96S
notes: IgG
B4: M2D11 (antibody, V domains shown)
VH: QVQLQQWGAGLLKPSETLSLTCAVSGGSFSGYHWTWIRQPPGKGLEWIGEVDHGGNTNYNPSLMSRVTISVDMSTKQFSLRLTSMTAADTAVYYCARGFGVVINNWFDPWGQGTLVTVTS
VL: DIQMTQSPSSLSASVGDRVTITCRASQTISSYLNWYQQKPGKAPNLLIYTVSTLQSGVPSRFSGSGSGTDFTLTISSLQPEDFATYYCQQSYGAPYTFGQGTKLEIK
notes: IgG
B5: M2D2 (antibody, V domains shown)
VH: QVQLVQSGAEVKKPGASVKVSCKASGYNFDNYYMSWVRQAPGQGLEWLGIIDPSGGRISYAPKFQGRVTLTRDTSTSTVYMELRGLRFEDTALYYCARLEATHEGPWGQGTLVTVSS
VL: QSVLTQPPSASGTPGQRVTISCSGSNSNIGSSTVNWYQQLPGTAPKLLIYSDNHRPSGVPDRFSGSRSGTSASLVISGLHSEDEADYYCGTWDDGLNGPYVFGTGTKVTVL
notes: IgG
B6: M2A11 (antibody, V domains shown)
VH: QVQLQESGPGLVKPSETLSLTCTVSGGSITSHYWSWVRQPPGKGLEWIAYIYYSGSTDYNPSLKSRVTISLDTSKNQVSLRLNSVTTADTAVYFCARCMPLYHVMHVWGHGTTVTVSS
VL: QSVLTQPPSVSGAPGQRVTISCTGSSSDIGAGSDVHWYQQLPGTAPKLLIYGNTNRPSGVPDRFSGSKSGTSASLAITGLQAEDEADYYCQSYDSGLSGYVFGGGTKLTVL
notes: IgG
B7: M2B12 (antibody, V domains shown)
VH: QVQLVESGGGVVQPGRSLRLSCEASGFTFSSSAMHWVRQAPGKGLEWVAIISYHGTNKDYSDSVRGRFTISRDNSKNTLYLQMNGLRGDDTAVYYCAKEAAVSGNFDSWGQGTMVTVSS
VL: QLVLTQSPSASASLGASVKLTCTLISGPSNYAIAWHRQQPQKGPRYLMKVNSDGSHTKGDGIPDRFSGSSSGTERYLIISNLQSEDEADYYCQTWGSGIYVFGPGTKVTVL
notes: IgG
B8: M2A05 (antibody, V domains shown)
VH: QITLKESGPTLVKPTQTLTLTCTVSGFSLSANSVGVAWFRQPPGKAPEWLGVIYWDDDKRFSPSLKTRLSITKDASTSQVVLRLTNVSPLDTATYYCVRKHYDLLQWGQGAPVTVSS
VL: EIVLTQSPGTLSLSPGEGATLSCRASRSVNSDYIAWYQHKPGLAPRLLIYAASTRATDIPDRFRADVSGTDFTLTIDRLEPDDFAVYYCQQYGSAVWTFGQGTRVEVK
notes: IgG
B9: M2A02 (antibody, V domains shown)
VH: QVQLVQSGAEVKRPGSSVKVSCKASGDIFSSHAISWVRQTPGQGLKWMGRIIPLVGIRNYAQDLQGRVTISADKSINTVYMELTNLRFDDTAVYYCARDRTDWSGGLDIWGQGTRVTVSS
VL: EIVLTQSPATLSLSPGERATLSCRASQRIGSYLAWYQQKPGQAPRLLIYDASNRATGIPARFSGSGSGTDFTLTISRLEPEDSAIYYCQQRTDWFTFGGGTKVEIK
notes: IgG
B10: M2D01 (antibody, V domains shown)
VH: QVQLQESGPGVVKPSETLSLTCTVSRGAITDYHLNWIRQPPGKGLEWIGYISSSGSTNYNPSLKSRVTISQVMSGTQFSLKLTSMSAADTALYYCASSSGRYWGGALDLWGQGTQVIVSS
VL: DIVMTQSPDSLAVPLGERATINCKSSQSLLYTSNNKNSLAWYQQKPGQPPKLLLFWASTREFRVPDRFSGSGSGTDFTLTISSLQAEDVAVYYCQQYYTAPYTFGPGTKLEIK
notes: IgG
B11: M2C07 (antibody, V domains shown)
VH: QVQLQESGPGLVAPSQTLSLICDVSGDSVTSGAYSWSWIRQHPVKGLEWIAYINYSGRTNYNPSLQSRLVISVDRSKNQFSLRLSSVTAADTAVYYCARANVVGYSGFYFDYWGQGTLVAVSS
VL: DIQMTQSPSSLSASVGDTVTITCRASQSVGAYLNWYQQKPGKAPKLLVFAGSSLQTGVPSRFSGRGSRTEFTLTITNLQREDFASYYCQQSLGDFLTFGGGTKVEIK
notes: IgG
B12: M2D03 (antibody, V domains shown)
VH: B11 VH with Y34H, F108Y
VL: B11 VL with T18R, V48I, T76S, S85T
notes: IgG
B13: M3D05 (antibody, V domains shown)
VH: QVQLVQSGAEVKQPGASVKVSCKASGYTFSGYYIQWVRQAPGQGLEWMGWINPNSGGTNFAQKFQGRVTMTSDTSTSAAYMELSSLRSDDTAVYYCVRGQQLTRQYYFGMDVWGQGTTVTVSS
VL: QSVLTQPPSVSGAPGQRVIISCSGSSSNIRSNAVNWYQQLPGKAPKLLIFYDGLLPSGVSDRFSGSKTGNSASLAISGLQSEDEADYYCAAWDDSLNGPVFGGGTKLTVL
notes: IgG
B14: M2B01 (antibody, V domains shown)
VH: QVQLVESGGGVVQPGKSLRLSCAASGFTFSSHAMDWVRQVPGKGLEWVAVISYDGSNRYYADSVKGRFTISRDTSKNTLYLQMNSLRPEDTAVYYCARDFQPSPMVYGVGYFDYWGQGTLVTVSP
VL: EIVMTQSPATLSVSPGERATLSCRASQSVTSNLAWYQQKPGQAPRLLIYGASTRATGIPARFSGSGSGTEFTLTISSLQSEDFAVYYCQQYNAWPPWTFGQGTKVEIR
notes: IgG
B15: M4A06 (antibody, V domains shown)
VH: EVQLVESGGGLVRPGGSLRLSCAASGFSLTTDEVNWVRQAPGKGPEWVSFISASGHTIYYADSVKGRFTISRDNGRNSVYLQMNSLRAEDTAVYYCARVGRLGGVGYYYALGPFDLWGQGTMVTVSS
VL: EIVLTQSPGTLSLSPGERATLSCRASQSITSNYLAWYQQKPGQAPRLLIYGASSRATGIPDRFSGSGSGTDFTLTISRLQPEDFAVYYCQQYGSSLYIFGQGTKLEIK
notes: IgG
B16: M1A04 (antibody, V domains shown)
VH: EVQLVESGGGLVRPGGSLRLSCAASGFNVRNYYMSWVRQAPGKGLEWISVIYGGGTTFYAGSVKGRFTISRDDSKSTLFLQMNSLRADDTAVYYCARDPGTVMSTENLQGMDVWGQGTTVTVSS
VL: DIQMTQSPSSLSASVGDRVTITCRASQTIRSYLNWYQQKPGKAPNLLIYAATSLQSGVPSRFSGSGSGTDFTLTISSLQPEDSATYYCQQSFSTLYSFGQGTRLEIK
notes: IgG
B17: M3D10 (antibody, V domains shown)
VH: QVQLQESGPGLVKPSETLSLTCTVSGGSVSTYYWTWIRQPPGKGLDWIGYIYHNGNINYNPSLKSRVTMSVDTSKNQFSLKLTSVTAADTALYYCATVSFIGYSLYYFDRWGQGTLVTVSS
VL: DIQMTQSPSSLSASVGDRVTITCRASQNIASFLNWYQQRPGKAPDLLIYAASTLQTGVPSRFSGSGSGTDFTLAISSLQPEDFATYYCQQSYNTPFTFGQGTKLEIK
notes: IgG
B18: M4C04 (antibody, V domains shown)
VH: RVTLRESGPALLKPTQTLTLTCTFSGFSLNTYGMSVNWIRQPPGKALEWLSRIDWDGDKYFNTSLKTRLTISKDTSKNQVVLTMTNMEPVDTATYYCAQSVIVPAQSFVSWFDPWGPGTLVTVSS
VL: EIVMTQSPATLSVSPGERATLSCRASQSVRSNLAWYQQKPGQAPRLLIYGASSRATGIPARFSGSGSGTEFTLTISSLQSEDLAIYYCQQYNNWPPGAFGQGTKVEIK
notes: IgG

Key:
[1] = target: T1, Unprocessed hMPV PreF trimer (human metapneumovirus, strain B2); assay: BLI, mAb on anti-human Fc sensor
T1 construct: also called Unprocessed hMPV WT PreF trimer; unprocessed hMPV PreF trimeric antigen

[2] = target: T2, Processed stabilized hMPV PreF trimer (115BV) (human metapneumovirus, strain B2); assay: BLI, mAb on anti-human Fc sensor
T2 construct: also called Processed hMPV PreF trimer; processed PreF

hMPV PostF trimer = target: T3, hMPV PostF trimer (human metapneumovirus, strain B2); assay: BLI, mAb on anti-human Fc sensor
T3 construct: also called MPV PostF (dPFv1)

[3] = target: T2, Processed stabilized hMPV PreF trimer …; assay: BLI, ratio to unprocessed PreF trimer

| Binder | Octet binding response [1] | Octet binding response [2] | Octet binding response (hMPV PostF trimer) | processed/unprocessed PreF trimer binding ratio [3] |
| --- | --- | --- | --- | --- |
| B1 | 0.317 nm | 0.0794 nm | 0.433 nm | 0.25 |
| B2 | 0.263 nm | 0.0323 nm | 0.506 nm | 0.12 |
| B3 | 0.222 nm | 0.0268 nm | 0.467 nm | 0.12 |
| B4 | 0.41 nm | 0.436 nm | 0.43 nm | 1.06 |
| B5 | 0.362 nm | 0.351 nm | 0.454 nm | 0.97 |
| B6 | 0.285 nm | 0.0658 nm | 0.293 nm | 0.23 |
| B7 | 0.378 nm | 0.438 nm | 0.445 nm | 1.16 |
| B8 | 0.378 nm | 0.447 nm | 0.449 nm | 1.18 |
| B9 | 0.261 nm | 0.0795 nm | -0.0402 nm | 0.3 |
| B10 | 0.33 nm | 0.0622 nm | 0.493 nm | 0.19 |
| B11 | 0.418 nm | 0.44 nm | 0.454 nm | 1.05 |
| B12 | 0.425 nm | 0.466 nm | 0.503 nm | 1.1 |
| B13 | 0.338 nm | 0.0831 nm | 0.539 nm | 0.25 |
| B14 | 0.315 nm | 0.0607 nm | 0.465 nm | 0.19 |
| B15 | 0.36 nm | 0.281 nm | 0.449 nm | 0.78 |
| B16 | 0.453 nm | 0.557 nm | 0.618 nm | 1.23 |
| B17 | 0.38 nm | 0.397 nm | 0.473 nm | 1.04 |
| B18 | 0.342 nm | 0.303 nm | 0.442 nm | 0.89 |
